In patent US11653679B2, “High-purity steviol glycosides” (PureCircle Sdn Bhd, priority 2014, dated 2023):
Positions count from the first letter of the chain named.

Columns and labels:
Assay type in all cases: biochemical
[1] = Directed evolution of UGT76G1, Rebaudioside D to Rebaudioside M, round 1 (Example 26); conditions: 100 μL fresh lysate, 0.5 mM Rebaudioside D, 30° C., pH 7.2
Procedure, shortened: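 Cleared cell lysate (Bugbuster) incubated with 0.5 mM Rebaudioside D, 3 mM MgCl2 and 2.5 mM UDP-glucose in 50 mM phosphate pH 7.2 at 30 °C. Samples at 2, 4, 7 and 24 h analysed by HPLC-CAD for conversion and initial rate.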

[2] = Directed evolution of UGT76G1, Rebaudioside D to Rebaudioside X, round 2 (Example 41); conditions: baseline clone Round1-Var94 defined as 100%, 100 μL lysate, 0.5 mM Rebaudioside D, 30° C., pH 7.2
Protocol: Lysis was performed by addition of Bugbuster® Master mix (Novagen®) to the thawed cells and the lysate was recovered by centrifugation. Activity tests were performed with 100 μL of fresh lysate that was added to a solution of Rebaudioside D (final concentration 0.5 mM), MgCl2 (final concentration 3 mM) and UDP-Glucose (final concentration 2.5 mM) in 50 mM phosphate buffer pH 7.2.
The reaction was allowed to run at 30° C. and samples were taken after 2, 4, 7 and 24 h. to determine conversion and initial rate by HPLC (CAD detection) using the analytical method that was described above for the transformation of Rebaudioside D to Rebaudioside X. In parallel the experiments were performed with baseline clone, Round1-Var94. The conversion after 22 h. and initial rate for this baseline clone was defined as 100% and the normalized conversions and initial rates for the round 2 clones are depicted in the following table: […]

[3] = Activity of UGT76G1_Sc for conversion of Rebaudioside D to Rebaudioside M (Example 35); conditions: 21 h., based on initial concentration of Rebaudioside D
Protocol: UGT76G1_Sc was prepared according to EXAMPLE 34. Activity tests were performed at 2 mL scale with 200 μL of lysate for the transformation of Rebaudioside D using 0.5 mM of substrate, 2.5 mM of UDP-Glucose and 3 mM MgCl2 in 50 mM Sodium Phosphate buffer at pH 7.2. Samples were taken and analyzed by HPLC. The corresponding chromatogram is depicted in FIG. 64.

[4] = Transformation of Rubusoside to Stevioside with in-vivo preparations of UGT91D2 (Example 19); conditions: per mL of lysate; 1 U transforms 1 μmol of substrate in 1 hour at 30° C. and pH 7.2
Protocol: Activity tests were performed at 5 mL scale with 1000 μL of lysate for the transformation of Rubusoside to Stevioside using 0.5 mM of substrate, 2.5 mM of UDP-Glucose and 3 mM MgCl2 in 50 mM Sodium Phosphate buffer at pH 7.2. Samples were taken and analyzed by HPLC.

[5] = Activity for Rubusoside to Rebaudioside E conversion with UGTSL, UGTSL2, UGTLB (Examples 29, 32); conditions: UGTLB, 5 h., 600 μL lysate, based on initial concentration of Rubusoside
Protocol: (§1) Activity tests were performed at 3 mL scale with 600 μL of lysate for the transformation of Rubusoside using 0.5 mM of substrate, 2.5 mM of UDP-Glucose and 3 mM MgCl2 in 50 mM Sodium Phosphate buffer at pH 7.2. Samples were taken and analyzed by HPLC. The HPLC assay was performed as described in EXAMPLE 20.
(§2) Activity tests were performed at 3 mL scale with 600 μL of lysate for the transformation of Rubusoside using 0.5 mM of substrate, 2.5 mM of UDP-Glucose and 3 mM MgCl2 in 50 mM Sodium Phosphate buffer at pH 7.2. Samples were taken and analyzed by HPLC. The corresponding chromatograms are depicted in FIG. 63b.

[6] = Activity for Rebaudioside A to Rebaudioside D conversion with UGTSL2, UGTLB (Examples 30, 32); conditions: UGTLB, 22 h., 600 μL lysate, based on initial concentration of Rebaudioside A
Protocol: as §1, with “60” for “600”, “Rebaudioside A” for “Rubusoside”
as §2, with “Rebaudioside A” for “Rubusoside”, “chromatogram after 23 h. of reaction is” for “chromatograms are”, “63c.” for “63b.”

[7] = Stevioside conversion products with UGTSL, UGTSL2, UGTLB by LCMS (Example 33); conditions: reaction time UGTSL2 2 hrs, UGTLB 2 hrs, UGTSL 22 hrs
Protocol: (§3) Conversion of stevioside with UGTSL and UGTSL2 was conducted in similar manner to Example 28, and the conversion of rubusoside with UGTSL and UGTSL2 was conducted similarly to Example 29. Conversions of rubusoside and stevioside with UGTLB was conducted similarly to Example 32.
(§4) The reaction mixtures were analyzed by LCMS to determine all reaction products.

[8] = Activity for Stevioside to Rebaudioside E conversion with UGTSL, UGTSL2, UGTLB (Examples 28, 32); conditions: UGTLB, 22 h., 600 μL lysate, based on initial concentration of Stevioside
Protocol: as §1, with “Stevioside” for “Rubusoside”, “HPLC. HPLC Analysis.” for “HPLC.”
as §2, with “Stevioside” for “Rubusoside”, “63a.” for “63b.”

[9] = Rubusoside conversion products with UGTSL, UGTSL2, UGTLB by LCMS (Example 33); conditions: reaction time UGTSL2 2 hrs, UGTLB 5 hrs, UGTSL 45 hrs
Protocol: as §3, §4

B1: UGT76G1var94: UGT76G1 variant, mutations Q266E_P272A_R334K_G348P_L379G (protein, UniProt Q6VAB4 1-458, looked up, variant Q266E P272A R334K G348P L379G)
UDP-glycosyltransferase 76G1: MENKTETTVRRRRRIILFPVPFQGHINPILQLANVLYSKGFSITIFHTNFNKPKTSNYPHFTFRFILDNDPQDERISNLPTHGPLAGMRIPIINEHGADELRRELELLMLASEEDEEVSCLITDALWYFAQSVADSLNLRRLVLMTSSLFNFHAHVSLPQFDELGYLDPDDKTRLEEQASGFPMLKVKDIKSAYSNWQILKEILGKMIKQTKASSGVIWNSFKELEESELETVIREIPAPSFLIPLPKHLTASSSSLLDHDRTVFEWLDQQAPSSVLYVSFGSTSEVDEKDFLEIARGLVDSKQSFLWVVRPGFVKGSTWVEPLPDGFLGERGKIVKWVPQQEVLAHPAIGAFWTHSGWNSTLESVCEGVPMIFSDFGGDQPLNARYMSDVLKVGVYLENGWERGEIANAIRRVMVDEEGEYIRQNARVLKQKADVSLMKGGSSYESLESLVSYISSL
For B1, which “conversion Reb D to Reb M after 24 h” value [1] is on record?
Its value is 72.0%.

What about the initial rate [1] of the same molecule?
The initial rate was 7.9E+07 Reb M area/min.

What about the “Normalized conversion Reb D to Reb X after 22 h.” value [2] of the same molecule?
The value was 100%.

What about the “Normalized initial rate (0-4 h)” value [2] of the same molecule?
Its value is 100%.

B2: UGT76G1_Sc: UGT76G1 produced in S. cerevisiae, lysate (protein, UniProt Q6VAB4 1-458, looked up)
UDP-glycosyltransferase 76G1: B1 UDP-glycosyltransferase 76G1 with E266Q, A272P, K334R, P348G, G379L
modifications: S. cerevisiae lysate
Which “Rebaudioside D conv. (reaction time)” value ([3]; 200 μL lysate, 0.5 mM substrate, 2.5 mM UDP-Glucose, pH 7.2) does the source give for B2 here?
The value was 85% (21 h.).

And the “Rebaudioside M selectivity” value [3]?
Its value is 100%.

B3: Example 15: UGT91D2 lysate using pMAL plasmid and BL21 expression strain (protein, UniProt B3VI56 1-473, looked up)
UDP-glycosyltransferase 91D2: MATSDSIVDDRKQLHVATFPWLAFGHILPYLQLSKLIAEKGHKVSFLSTTRNIQRLSSHISPLINVVQLTLPRVQELPEDAEATTDVHPEDIPYLKKASDGLQPEVTRFLEQHSPDWIIYDYTHYWLPSIAASLGISRAHFSVTTPWAIAYMGPSADAMINGSDGRTTVEDLTTPPKWFPFPTKVCWRKHDLARLVPYKAPGISDGYRMGLVLKGSDCLLSKCYHEFGTQWLPLLETLHQVPVVPVGLLPPEVPGDEKDETWVSIKKWLDGKQKGSVVYVALGSEVLVSQTEVVELALGLELSGLPFVWAYRKPKGPAKSDSVELPDGFVERTRDRGLVWTSWAPQLRILSHESVCGFLTHCGSGSIVEGLMFGHPLIMLPIFGDQPLNARLLEDKQVGIEIPRNEEDGCLTKESVARSLRSVVVEKEGEIYKANARELSKIYNDTKVEKEYVSQFVDYLEKNTRAVAIDHES
modifications: MBP fusion from pMAL, E. coli lysate
notes: UGT91D2 lysate using pMAL plasmid and BL21 expression strain
With B3 as the molecule, how does the “Transformation activity Rubusoside to Stevioside” value [4] read?
Its value is 9 mU mL^−1.

B4: Example 17: UGT91D2 lysate using pET30a+ plasmid and Tuner (DE3) expression strain (protein, UniProt B3VI56 1-473, looked up)
UDP-glycosyltransferase 91D2: B3 UDP-glycosyltransferase 91D2
modifications: E. coli lysate
notes: UGT91D2 lysate using pET30a+ plasmid and Tuner (DE3) expression strain
Which “Transformation activity Rubusoside to Stevioside” value [4] does the source give for B4 here?
The value was 28 mU mL^−1.

B5: Example 18: UGT91D2 lysate using pET30a+ plasmid and ArcticExpress expression strain (protein, UniProt B3VI56 1-473, looked up)
UDP-glycosyltransferase 91D2: B3 UDP-glycosyltransferase 91D2
modifications: E. coli lysate
notes: UGT91D2 lysate using pET30a+ plasmid and ArcticExpress expression strain
With B5 as the molecule, how does the “Transformation activity Rubusoside to Stevioside” value [4] read?
The value was 21 mU mL^−1.

B6: UGTLB: UDP-glucosyltransferase, Lycium barbarum, SEQ ID NO:10 (protein, listed as Escherichia coli)
chain: MGTEVTVHKNTLRVLMFPWLAYGHISPFLNVAKKLVDRGFLIYLCSTAINLKSTIKKIPEKYSDSIQLIELHLPELPELPPHYHTTNGLPPHLNHTLQKALKMSKPNFSKILQNLKPDLVIYDLLQQWAEGVANEQNIPAVKLLTSGAAVLSYFFNLVKKPGVEFPFPAIYLRKNELEKMSELLAQSAKDKEPDGVDPFADGNMQVMLMSTSRIIEAKYIDYFSGLSNWKVVPVGPPVQDPIADDADEMELIDWLGKKDENSTVFVSFGSEYFLSKEDREEIAFGLELSNVNFIWVARFPKGEEQNLEDALPKGFLERIGDRGRVLDKFAPQPRILNHPSTGGFISHCGWNSVMESVDFGVPIIAMPIHLDQPMNARLIVELGVAVEIVRDDYGKIHREEIAEILKDVIAGKSGENLKAKMRDISKNLKSIRDEEMDTAAEELIQLCKNSPKLK
What does the source list for B6?
Rebaudioside E formation ([5]; 0.5 mM Rubusoside): 4%; Rubusoside conv. (reaction time) ([5]; 0.5 mM substrate): 65% (5 h.); Rebaudioside D formation ([6]; 0.5 mM Rebaudioside A): 10%; Rebaudioside A conv. (reaction time) ([6]; 0.5 mM substrate): 72% (22 h.); LC-MS, peak area ratio (%): Reb E [7]: 3.12%; LC-MS, peak area ratio (%): Stev [7]: 43.11%; LC-MS, peak area ratio (%): Unknown peak #2 (MW966) RT = 26.50 min [7]: 53.78%; Rebaudioside E formation ([8]; 0.5 mM Stevioside): 3%; Stevioside conv. (reaction time) ([8]; 0.5 mM substrate): 89% (22 h.); LC-MS, peak area ratio (%): REb E [9]: 9.21%; LC-MS, peak area ratio (%): Reb D [9]: 1.29%; LC-MS, peak area ratio (%): Rub [9]: 13.49%; LC-MS, peak area ratio (%): Unknown peak #1 (MW804) RT 30.70 min [9]: 4.07%; LC-MS, peak area ratio (%): Unknown peak #2 (MW804) RT 49.50 min [9]: 66.67%; LC-MS, peak area ratio (%): Unknown peak #3 (MW804) RT 50.40 min [9]: 5.27%
